This passage reports EC50 (0.1% HSA) (nM), pERK, HEK293/BKL cells and EC50 (nM), pERK, HEK293/BKL cells results from patent US20180140673A1.

This experiment concerns the target FGF receptor/BKL complex on HEK293 cells overexpressing human beta-klotho (BKL) (human) (UniProt Q86Z14). As to the kind of experiment: cell-based or functional assay.

Sequence of FGF receptor/BKL complex on HEK293 cells overexpressing human beta-klotho (BKL) (human) (Q86Z14 whole entry, one chain of several): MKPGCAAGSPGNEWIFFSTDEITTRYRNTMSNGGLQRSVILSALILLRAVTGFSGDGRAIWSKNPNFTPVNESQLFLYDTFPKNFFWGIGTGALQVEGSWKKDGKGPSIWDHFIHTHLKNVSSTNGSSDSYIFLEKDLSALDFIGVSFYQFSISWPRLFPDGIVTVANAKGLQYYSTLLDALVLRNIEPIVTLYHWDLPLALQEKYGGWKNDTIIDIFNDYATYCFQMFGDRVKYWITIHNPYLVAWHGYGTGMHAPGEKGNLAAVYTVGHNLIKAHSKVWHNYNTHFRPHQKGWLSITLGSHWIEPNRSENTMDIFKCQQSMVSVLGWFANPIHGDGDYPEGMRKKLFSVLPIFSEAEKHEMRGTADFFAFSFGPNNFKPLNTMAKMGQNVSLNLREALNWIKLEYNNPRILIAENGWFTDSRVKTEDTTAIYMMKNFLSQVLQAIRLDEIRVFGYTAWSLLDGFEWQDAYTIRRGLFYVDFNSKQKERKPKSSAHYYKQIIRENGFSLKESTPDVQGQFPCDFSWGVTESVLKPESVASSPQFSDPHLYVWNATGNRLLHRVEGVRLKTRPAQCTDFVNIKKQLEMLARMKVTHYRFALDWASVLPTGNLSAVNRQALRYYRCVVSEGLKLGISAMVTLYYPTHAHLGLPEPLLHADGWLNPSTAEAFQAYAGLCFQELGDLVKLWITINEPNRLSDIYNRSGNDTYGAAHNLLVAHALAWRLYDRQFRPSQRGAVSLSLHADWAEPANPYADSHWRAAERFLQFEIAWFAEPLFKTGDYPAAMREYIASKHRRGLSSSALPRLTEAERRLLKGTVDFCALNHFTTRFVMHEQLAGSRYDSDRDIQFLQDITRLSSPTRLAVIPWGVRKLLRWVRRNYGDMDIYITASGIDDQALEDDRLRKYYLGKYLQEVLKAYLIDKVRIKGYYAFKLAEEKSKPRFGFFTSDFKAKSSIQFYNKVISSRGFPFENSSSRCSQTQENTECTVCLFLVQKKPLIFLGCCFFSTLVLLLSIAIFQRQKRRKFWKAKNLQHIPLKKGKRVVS
Sequence of 4-[10-[[(1S)-4-[2-[2-[2-[2-[2-[2-[[(1S)-5-acetamido-1-carboxy-pentyl]amino]-2-oxo-ethoxy]ethoxy]ethylamino]-2-oxo-ethoxy]ethoxy]ethylamino]-1-carboxy-4-oxo-butyl]amino]-10-oxo-decoxy]benzoic acid]-Ala (Q9NSA1 other isoform, or with tags, fused parts or gaps limits assumed): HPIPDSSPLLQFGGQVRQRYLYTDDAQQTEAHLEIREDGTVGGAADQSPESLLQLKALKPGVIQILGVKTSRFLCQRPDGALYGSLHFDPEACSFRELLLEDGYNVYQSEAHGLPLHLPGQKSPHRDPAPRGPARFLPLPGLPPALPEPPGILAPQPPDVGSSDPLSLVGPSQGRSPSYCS
Sequence of Ala[Gln121,Leu168,Cys173]FGF21 (Q9NSA1 other isoform, or with tags, fused parts or gaps limits assumed): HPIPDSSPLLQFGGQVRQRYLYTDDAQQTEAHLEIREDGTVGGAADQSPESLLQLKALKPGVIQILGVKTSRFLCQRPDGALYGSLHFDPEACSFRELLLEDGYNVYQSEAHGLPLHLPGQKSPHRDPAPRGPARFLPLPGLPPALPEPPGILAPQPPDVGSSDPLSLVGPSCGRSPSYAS
Sequence of Ala[Gln121,Leu168,Cys174]FGF21 (Q9NSA1 other isoform, or with tags, fused parts or gaps limits assumed): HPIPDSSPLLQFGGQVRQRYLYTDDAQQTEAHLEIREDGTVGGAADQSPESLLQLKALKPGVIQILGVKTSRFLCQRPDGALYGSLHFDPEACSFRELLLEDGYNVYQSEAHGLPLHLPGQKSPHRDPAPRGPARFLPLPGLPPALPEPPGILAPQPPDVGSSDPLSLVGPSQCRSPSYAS
Sequence of Ala[Gln121,Leu168,Cys172]FGF21 (Q9NSA1 other isoform, or with tags, fused parts or gaps limits assumed): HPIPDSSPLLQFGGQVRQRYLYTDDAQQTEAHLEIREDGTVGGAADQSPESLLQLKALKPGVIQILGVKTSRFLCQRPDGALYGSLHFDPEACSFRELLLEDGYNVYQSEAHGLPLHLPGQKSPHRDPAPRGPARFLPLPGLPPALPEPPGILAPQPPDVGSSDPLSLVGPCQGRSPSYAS
Sequence of Ala[Gln121,Leu168,Cys175]FGF21 (Q9NSA1 other isoform, or with tags, fused parts or gaps limits assumed): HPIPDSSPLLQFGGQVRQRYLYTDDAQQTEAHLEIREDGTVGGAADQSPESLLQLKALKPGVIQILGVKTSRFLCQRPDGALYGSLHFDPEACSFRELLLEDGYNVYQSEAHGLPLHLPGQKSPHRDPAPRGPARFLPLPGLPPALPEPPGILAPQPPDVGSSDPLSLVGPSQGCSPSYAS
Sequence of Ala[Gln121,Leu168,Cys177]FGF21 (Q9NSA1 other isoform, or with tags, fused parts or gaps limits assumed): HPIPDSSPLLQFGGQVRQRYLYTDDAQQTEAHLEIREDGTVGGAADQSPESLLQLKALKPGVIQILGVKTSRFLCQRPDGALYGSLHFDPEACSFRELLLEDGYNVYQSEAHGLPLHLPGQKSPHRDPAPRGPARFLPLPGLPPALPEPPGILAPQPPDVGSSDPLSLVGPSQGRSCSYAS
Sequence of Ala[Gln121,Leu168,Cys170]FGF21 (Q9NSA1 other isoform, or with tags, fused parts or gaps limits assumed): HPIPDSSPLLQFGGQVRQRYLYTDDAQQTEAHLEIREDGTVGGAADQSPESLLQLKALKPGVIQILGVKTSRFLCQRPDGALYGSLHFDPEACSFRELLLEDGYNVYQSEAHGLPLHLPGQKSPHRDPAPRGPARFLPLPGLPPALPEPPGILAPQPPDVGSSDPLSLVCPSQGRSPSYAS
Sequence of Ala[Gln121,Leu168,Cys169]FGF21 (Q9NSA1 other isoform, or with tags, fused parts or gaps limits assumed): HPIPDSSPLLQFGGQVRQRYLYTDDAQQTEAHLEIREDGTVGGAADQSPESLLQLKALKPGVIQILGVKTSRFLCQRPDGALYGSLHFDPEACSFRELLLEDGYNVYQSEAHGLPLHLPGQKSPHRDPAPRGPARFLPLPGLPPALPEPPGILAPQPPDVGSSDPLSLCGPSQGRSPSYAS

Regarding “4-[10-[[4-[2-[2-[2-[2-[2-[2-[[(1S)-5-acetamido-1-carboxy-pentyl]amino]-2-oxo-ethoxy]ethoxy]ethylamino]-2-oxo-ethoxy]ethoxy]ethylamino]-4-oxo-butyl]sulfonylamino]-10-oxo-decoxy]benzoic acid-Ala[Gln121,Leu168,Cys181]FGF21 (from UniProt Q9NSA1 29-208) (ligand)”, the EC50 (0.1% HSA) (nM), pERK, HEK293/BKL cells turned out to be 132 nM and the EC50 (nM), pERK, HEK293/BKL cells was determined as 24.7 nM.
“4-[10-[[4-[2-[2-[2-[2-[2-[2-[[(1S)-5-acetamido-1-carboxy-pentyl]amino]-2-oxo-ethoxy]ethoxy]ethylamino]-2-oxo-ethoxy]ethoxy]ethylamino]-4-oxo-butyl]sulfonylamino]-10-oxo-decoxy]benzoic acid]-Ala[Gln121,Leu168,Cys180]FGF21 (from UniProt Q9NSA1 29-209) (ligand)” yielded an EC50 (0.1% HSA) (nM), pERK, HEK293/BKL cells of 4 nM and an EC50 (nM), pERK, HEK293/BKL cells of 3.2 nM.
The corresponding values for “4-[10-[[(1S)-4-[2-[2-[2-[2-[2-[2-[[(1S)-5-acetamido-1-carboxy-pentyl]amino]-2-oxo-ethoxy]ethoxy]ethylamino]-2-oxo-ethoxy]ethoxy]ethylamino]-1-carboxy-4-oxo-butyl]amino]-10-oxo-decoxy]benzoic acid]-Ala[Gln121,Leu168,Cys180]FGF21 (from UniProt Q9NSA1 29-209) (ligand)” are 3 nM and 5 nM.
In turn, “4-[10-[[(1S)-4-[2-[2-[2-[2-[2-[2-[[(1S)-5-acetamido-1-carboxy-pentyl]amino]-2-oxo-ethoxy]ethoxy]ethylamino]-2-oxo-ethoxy]ethoxy]ethylamino]-1-carboxy-4-oxo-butyl]amino]-10-oxo-decoxy]benzoic acid]-Ala[Gln121,Leu168,Cys181]FGF21 (from UniProt Q9NSA1 29-208) (ligand)” yielded an EC50 (0.1% HSA) (nM), pERK, HEK293/BKL cells of 138 nM and an EC50 (nM), pERK, HEK293/BKL cells of 26.4 nM.
The corresponding values for “12-[[4-[[(1S)-4-[2-[2-[2-[2-[2-[2-(2-acetamidoethylamino)-2-oxo-ethoxy]ethoxy]ethylamino]-2-oxo-ethoxy]ethoxy]ethylamino]-1-carboxy-4-oxo-butyl]carbamoyl]cyclohexyl]methylamino]-12-oxo-dodecanoic acid-Ala[Gln121,Leu168,Cys180]FGF21 (from UniProt Q9NSA1 29-209) (ligand)” are 4.7 nM and 4 nM.
In turn, “12-[[(1S)-4-[2-[2-[2-[2-[2-[2-[[(1S)-5-acetamido-1-carboxy-pentyl]amino]-2-oxo-ethoxy]ethoxy]ethylamino]-2-oxo-ethoxy]ethoxy]ethylamino]-1-carboxy-4-oxo-butyl]amino]-12-oxo-dodecanoic acid-Ala[Gln121,Leu168,Cys180]FGF21 (from UniProt Q9NSA1 29-209) (ligand)” showed an EC50 (0.1% HSA) (nM), pERK, HEK293/BKL cells of 3.4 nM and an EC50 (nM), pERK, HEK293/BKL cells of 8.4 nM.
Take “12-[[(1S)-4-[[(1S)-4-[2-[2-[2-[2-[2-[2-[[(1S)-5-acetamido-1-carboxy-pentyl]amino]-2-oxo-ethoxy]ethoxy]ethylamino]-2-oxo-ethoxy]ethoxy]ethylamino]-1-carboxy-4-oxo-butyl]amino]-1-carboxy-4-oxo-butyl]amino]-12-oxo-dodecanoic acid-Ala[Gln121,Leu168,Cys180]FGF21 (from UniProt Q9NSA1 29-209) (ligand)”: the EC50 (0.1% HSA) (nM), pERK, HEK293/BKL cells is 6.1 nM and the EC50 (nM), pERK, HEK293/BKL cells was found to be 7.9 nM.
For “16-[[4-[[(1S)-4-[2-[2-[2-[2-[2-[2-(2-acetamidoethylamino)-2-oxo-ethoxy]ethoxy]ethylamino]-2-oxo-ethoxy]ethoxy]ethylamino]-1-carboxy-4-oxo-butyl]carbamoyl]cyclohexyl]methylamino]-16-oxo-hexadecanoic acid-Ala[Gln121,Leu168,Cys180]FGF21 (from UniProt Q9NSA1 29-209) (ligand)”, the EC50 (0.1% HSA) (nM), pERK, HEK293/BKL cells came to 3.2 nM and the EC50 (nM), pERK, HEK293/BKL cells was found to be 3.5 nM.
Substance “16-[[4-[[(1S)-4-[2-[2-[2-[2-[2-[2-[[(1S)-5-[(2-acetamido]-1-carboxy-pentyl]amino]-2-oxo-ethoxy]ethoxy]ethylamino]-2-oxo-ethoxy]ethoxy]ethylamino]-1-carboxy-4-oxo-butyl]carbamoyl]cyclohexyl]methylamino]-16-oxo-hexadecanoic acid-Ala[Gln121,Leu168,Cys180]FGF21 (from UniProt Q9NSA1 29-209) (ligand)” yielded an EC50 (0.1% HSA) (nM), pERK, HEK293/BKL cells of 2.1 nM and an EC50 (nM), pERK, HEK293/BKL cells of 4 nM.
“16-[[(1S)-4-[2-[2-[2-[2-[2-[2-(2-acetamidoethylamino)-2-oxo-ethoxy]ethoxy]ethylamino]-2-oxo-ethoxy]ethoxy]ethylamino]-1-carboxy-4-oxo-butyl]amino]-16-oxo-hexadecanoic acid-Ala[Gln121,Leu168,Cys174]FGF21 (from UniProt Q9NSA1 29-209) (ligand)” returned an EC50 (0.1% HSA) (nM), pERK, HEK293/BKL cells of 4 nM and an EC50 (nM), pERK, HEK293/BKL cells of 2 nM.
In the case of “18-[[4-[[(1S)-4-[2-[2-[2-[2-[2-[2-[[(1S)-5-[(2-acetamido]-1-carboxy-pentyl]amino]-2-oxo-ethoxy]ethoxy]ethylamino]-2-oxo-ethoxy]ethoxy]ethylamino]-1-carboxy-4-oxo-butyl]carbamoyl]cyclohexyl]methylamino]-18-oxo-octadecanoic acid-Ala[Gln121,Leu168,Cys180]FGF21 (from UniProt Q9NSA1 29-209) (ligand)”, the EC50 (0.1% HSA) (nM), pERK, HEK293/BKL cells amounted to 14 nM and the EC50 (nM), pERK, HEK293/BKL cells was found to be 4 nM.
Regarding “18-[[(1S)-4-[2-[2-[2-[2-[2-[2-(2-acetamidoethylamino)-2-oxo-ethoxy]ethoxy]ethylamino]-2-oxo-ethoxy]ethoxy]ethylamino]-1-carboxy-4-oxo-butyl]amino]-18-oxo-octadecanoic acid-Ala[Gln121,Leu168,Cys170]FGF21 (from UniProt Q9NSA1 29-209) (ligand)”, the EC50 (0.1% HSA) (nM), pERK, HEK293/BKL cells is 20 nM and the EC50 (nM), pERK, HEK293/BKL cells was 1 nM.
Consider “18-[[(1S)-4-[2-[2-[2-[2-[2-[2-(2-acetamidoethylamino)-2-oxo-ethoxy]ethoxy]ethylamino]-2-oxo-ethoxy]ethoxy]ethylamino]-1-carboxy-4-oxo-butyl]amino]-18-oxo-octadecanoic acid-Ala[Gln121,Leu168,Cys174]FGF21 (from UniProt Q9NSA1 29-209) (ligand)”, for which the EC50 (0.1% HSA) (nM), pERK, HEK293/BKL cells worked out at 1 nM and the EC50 (nM), pERK, HEK293/BKL cells was 1 nM.
Substance “20-[[4-[[(1S)-4-[2-[2-[2-[2-[2-[2-[[(1S)-5-[(2-acetamido]-1-carboxy-pentyl]amino]-2-oxo-ethoxy]ethoxy]ethylamino]-2-oxo-ethoxy]ethoxy]ethylamino]-1-carboxy-4-oxo-butyl]carbamoyl]cyclohexyl]methylamino]-20-oxo-icosanoic acid-Ala[Gln121,Leu168,Cys180]FGF21 (from UniProt Q9NSA1 29-209) (ligand)” displayed an EC50 (0.1% HSA) (nM), pERK, HEK293/BKL cells of 35.5 nM and an EC50 (nM), pERK, HEK293/BKL cells of 4 nM.
The corresponding values for “20-[[(1S)-4-[2-[2-[2-[2-[2-[2-[[(1S)-5-acetamido-1-carboxy-pentyl]amino]-2-oxo-ethoxy]ethoxy]ethylamino]-2-oxo-ethoxy]ethoxy]ethylamino]-1-carboxy-4-oxo-butyl]amino]-20-oxo-icosanoic acid-Ala[Gln121,Leu168,Cys180]FGF21 (from UniProt Q9NSA1 29-209) (ligand)” are 52.5 nM and 6.1 nM.
In turn, “20-[[(1S)-4-[[(1S)-4-[2-[2-[2-[2-[2-[2-[[(1S)-5-acetamido-1-carboxy-pentyl]amino]-2-oxo-ethoxy]ethoxy]ethylamino]-2-oxo-ethoxy]ethoxy]ethylamino]-1-carboxy-4-oxo-butyl]amino]-1-carboxy-4-oxo-butyl]amino]-20-oxo-icosanoic acid-Ala[Gln121,Leu168,Cys180]FGF21 (from UniProt Q9NSA1 29-209) (ligand)” gave an EC50 (0.1% HSA) (nM), pERK, HEK293/BKL cells of 65.5 nM and an EC50 (nM), pERK, HEK293/BKL cells of 10.3 nM.
Substance “(2S)-6-acetamido-2-[[2-[2-[2-[[2-[2-[2-[[(4S)-4-carboxy-4-(16-sulfohexadecanoylamino)butanoyl]amino]ethoxy]ethoxy]acetyl]amino]ethoxy]ethoxy]acetyl]amino]hexadecanoic acid-Ala[Gln121,Leu168,Cys180]FGF21 (from UniProt Q9NSA1 29-209) (ligand)” registered an EC50 (0.1% HSA) (nM), pERK, HEK293/BKL cells of 7.1 nM and an EC50 (nM), pERK, HEK293/BKL cells of 4.2 nM.
In turn, “Ala[Gln121,Cys167,Leu168,]FGF21 (from UniProt Q9NSA1 29-209) (ligand)” yielded an EC50 (nM), pERK, HEK293/BKL cells of 4 nM.
As to “Ala[Gln121,Cys168]FGF21 (from UniProt Q9NSA1 29-209) (ligand)”, the EC50 (nM), pERK, HEK293/BKL cells was 492 nM.
In turn, “Ala[Gln121,Leu168,Cys169]FGF21 (from UniProt Q9NSA1 29-209) (ligand)” registered an EC50 (nM), pERK, HEK293/BKL cells of 22 nM.
On to “Ala[Gln121,Leu168,Cys170]FGF21 (from UniProt Q9NSA1 29-209) (ligand)”, for which the EC50 (nM), pERK, HEK293/BKL cells was 7 nM.
Still for that read-out and setting: as for “Ala[Gln121,Leu168,Cys172]FGF21 (from UniProt Q9NSA1 29-209) (ligand)”, the figure is 5 nM; as for “Ala[Gln121,Leu168,Cys173]FGF21 (from UniProt Q9NSA1 29-209) (ligand)”, 4 nM.
The same measure, in the same setting: as for “Ala[Gln121,Leu168,Cys174]FGF21 (from UniProt Q9NSA1 29-209) (ligand)”, the figure is 5 nM; as for “Ala[Gln121,Leu168,Cys175]FGF21 (from UniProt Q9NSA1 29-209) (ligand)”, 11 nM; as for “Ala[Gln121,Leu168,Cys177]FGF21 (from UniProt Q9NSA1 29-209) (ligand)”, 416 nM.
